This note sets out measurements from patent publication US20150126390A1.

A value given as a limit tells only on which side of the number the result lay.

This assay deals with tau-CFP/YFP protein biosensors (UniProt P10636). Description: cell-based or functional assay.
Sequence of tau-CFP/YFP protein biosensors (P10636 561-689, form in doubt): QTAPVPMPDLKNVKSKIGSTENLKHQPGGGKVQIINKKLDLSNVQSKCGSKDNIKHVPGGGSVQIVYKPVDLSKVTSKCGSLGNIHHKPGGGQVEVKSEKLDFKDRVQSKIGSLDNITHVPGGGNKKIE

Sequence of recombinant full-length (2N,4R) tau fibrils, preparation C (50 µM octadecyl sulfate, 37° C.) (P10636 other isoform, or with tags, fused parts or gaps limits assumed): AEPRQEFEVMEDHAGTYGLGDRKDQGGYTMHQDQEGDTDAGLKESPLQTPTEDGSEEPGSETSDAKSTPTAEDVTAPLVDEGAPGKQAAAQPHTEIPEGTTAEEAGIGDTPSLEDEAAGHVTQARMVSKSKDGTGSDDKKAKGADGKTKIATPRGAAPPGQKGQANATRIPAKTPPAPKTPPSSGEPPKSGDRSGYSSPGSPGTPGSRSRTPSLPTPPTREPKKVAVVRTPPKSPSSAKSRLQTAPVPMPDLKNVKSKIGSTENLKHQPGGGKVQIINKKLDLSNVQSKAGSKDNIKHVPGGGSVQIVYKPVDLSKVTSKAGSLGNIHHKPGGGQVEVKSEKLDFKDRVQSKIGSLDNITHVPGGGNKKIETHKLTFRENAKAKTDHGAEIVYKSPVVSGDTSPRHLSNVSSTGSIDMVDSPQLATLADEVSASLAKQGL
Sequence of recombinant full-length (2N,4R) tau fibrils, preparation A (8 µM heparin, 37° C.) (P10636 other isoform, or with tags, fused parts or gaps limits assumed): as above
Sequence of recombinant full-length (2N,4R) tau fibrils, preparation B (8 µM heparin, 22° C.) (P10636 other isoform, or with tags, fused parts or gaps limits assumed): as above

In turn, “recombinant full-length (2N,4R) tau fibrils, preparation A (8 µM heparin, 37° C.) (from UniProt P10636 2-441)” displayed an EC50 (pM) of seeding, FRET flow cytometry in biosensor cell line of less than 1 pM and a Plateau (fold increase) of seeding, FRET flow cytometry in biosensor cell line (fold increase) of 6.67.
The corresponding values for “recombinant full-length (2N,4R) tau fibrils, preparation B (8 µM heparin, 22° C.) (from UniProt P10636 2-441)” are 4.3 pM and 6.55.
As for “recombinant full-length (2N,4R) tau fibrils, preparation C (50 µM octadecyl sulfate, 37° C.) (from UniProt P10636 2-441)”, the EC50 (pM) of seeding, FRET flow cytometry in biosensor cell line came to 141 pM and the Plateau (fold increase) of seeding, FRET flow cytometry in biosensor cell line (fold increase) was 4.19.
